Measured values as given in patent US9669247B2 (priority 2011, dated 2017).

Columns and labels:
[1] = pH 7
[2] = pH 7; remark: listed apart in the source

B1: TsmE (protein)
chain: METDKKTGTSRRSFVKAAGTGAIGIATLPLSTATAFAETDNVELAQSKRKVVLAEQGSFYIGGRTVTGPGKFDPSKPVIPYSNEGATFYINQMYVNFQAPVRPRGLPLVFWHGGGLTGHIWESTPDGRPGFQTLFVQDRHTVYTIDQPGRGRGNIPTFNGPFGQLEEESIVNTVTGNSSKEGAWVRDRLGPAPGQFFENSQFPRGYEDNYFKEMGFSPSISSDEIVDAVVKLVTHIGPCVLVTHSASGVLGMRVATHAKNVRGIVAYEPATSIFPKGKVPEIPPLADKKSQIFPPFEIQESYFKKLAKIPIQFVFGDNIPKNPKSAYWFLDWWRVTRYAHSLSLEAINKLGGQASLLDLPTAGLRGNTHFPFTDRNNVQVASLLSDFLGKHGLDQNES
modifications: Methylophilus sp. S113; Thiefensulfuron Hydrolase TSME
specific enzyme activity of TsmE to thifensulfuron [1]: 67 U/mg protein
specific enzyme activity of TsmE to haloxyfop-R-methyl [2]: 55 U/mg protein
